This note sets out measurements from the supplement of paper PMC10567573.

To fix the notation:
B1: ZNF449 (parent)
chain: FQEYDTDCEVFRQRFRQFQYREAA
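Also: lentivirally expressed fusions sorted by FACS into six bins by GFP to DsRed ratio, PSI derived from sequencing read proportions per bin multiplied by bin number.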

The variants in the data set derive from B1. Description: protein stability index of a GFP-peptide fusion (GPS, HEK-293T) (PSI 1-6); higher = more stable. Conditions: c terminus: a fixed tail appended.
Take FQEYDTDCEVFRQRFRQFPYREAA [Q19P]: the protein stability index amounted to 2.16. Consider FQEYDTDCEVFRQRFRQFDYREAA [Q19D], for which the protein stability index came to 2.18.

For FQEYDTDCEVFRQRFRQFYYREAA [Q19Y], the protein stability index was 2.22. As for FQEYDTDCEVFRQRFRQFIYREAA [Q19I], the protein stability index amounted to 2.53. The result for FQEYDTDCEVFRQRFRQFEYREAA [Q19E] reads 2.35. Regarding FQEYDTDCEVFRQRFRQFMYREAA [Q19M], the protein stability index worked out at 2. To FQEYDTDCEVFRQRFRQFHYREAA [Q19H] belongs 2.6; to FQEYDTDCEVFRQRFRQFVYREAA [Q19V], 2.48; to FQEYDTDCEVFRQRFRQFKYREAA [Q19K], 2.44. Turning to FQEYDTDCEVFRQRFRQFSYREAA [Q19S], the protein stability index was 2.11.

FQEYDTDCEVFRQRFRQFRYREAA [Q19R]: the protein stability index stood at 2.65.

As to FQEYDTDCEVFRQRFRQFTYREAA [Q19T], the protein stability index worked out at 2.3. As for FQEYDTDCEVFRQRFRQFNYREAA [Q19N], the protein stability index amounted to 2.29.

On to FQEYDTDCEVFRQRFRQFAYREAA [Q19A], for which the protein stability index amounted to 2.81. With FQEYDTDCEVFRQRFRQFCYREAA [Q19C], the protein stability index was 2.02.

Turning to FQEYDTDCEVFRQRFRQFGYREAA [Q19G], the protein stability index turned out to be 2.67. For the variant FQEYDTDCEVFRQRFRQFWYREAA [Q19W], the protein stability index worked out at 2.35. In the case of FQEYDTDCEVFRQRFRQFFYREAA [Q19F], the protein stability index is 1.87. Consider FQEYDTDCEVFRQRTRQFQYREAA [F15T], for which the protein stability index worked out at 2.66. The result for FQEYDTDCEVFRQRWRQFQYREAA [F15W] reads 2.62; that for FQEYDTDCEVFRQRERQFQYREAA [F15E], 2.92; that for FQEYDTDCEVFRQRKRQFQYREAA [F15K], 2.22. The result for FQEYDTDCEVFRQRVRQFQYREAA [F15V] reads 2.98; that for FQEYDTDCEVFRQRRRQFQYREAA [F15R], 2.76; that for FQEYDTDCEVFRQRHRQFQYREAA [F15H], 3.33. On to FQEYDTDCEVFRQRCRQFQYREAA [F15C], for which the protein stability index was found to be 2.83. As for FQEYDTDCEVFRQRARQFQYREAA [F15A], the protein stability index stood at 3.02.

With FQEYDTDCEVFRQRNRQFQYREAA [F15N], the protein stability index was 2.88. To FQEYDTDCEVFRQRIRQFQYREAA [F15I] belongs 2.44; to FQEYDTDCEVFRQRYRQFQYREAA [F15Y], 2.17; to FQEYDTDCEVFRQRSRQFQYREAA [F15S], 2.57.

Regarding FQEYDTDCEVFRQRDRQFQYREAA [F15D], the protein stability index is 3.43.

For FQEYDTDCEVFRQRQRQFQYREAA [F15Q], the protein stability index worked out at 3.01.

For FQEYDTDCEVFRQRMRQFQYREAA [F15M], the protein stability index stood at 2.84.

In the case of FQEYDTDCEVFRQRPRQFQYREAA [F15P], the protein stability index came out at 3. As to FQEYDTDCEVFRQRLRQFQYREAA [F15L], the protein stability index amounted to 2.42. As to FQEYDTDCEVFRQRGRQFQYREAA [F15G], the protein stability index is 2.85. Take FQEYDTDCEVFRQRFRQFQYREHA [A23H]: the protein stability index stood at 2.54. FQEYDTDCEVFRQRFRQFQYREYA [A23Y]: the protein stability index came out at 1.95.

FQEYDTDCEVFRQRFRQFQYREEA [A23E]: the protein stability index is 3.28. Consider FQEYDTDCEVFRQRFRQFQYRECA [A23C], for which the protein stability index amounted to 2.65. To FQEYDTDCEVFRQRFRQFQYREDA [A23D] belongs 2.73; to FQEYDTDCEVFRQRFRQFQYREIA [A23I], 1.7.

Regarding FQEYDTDCEVFRQRFRQFQYRETA [A23T], the protein stability index was 2.47. Consider FQEYDTDCEVFRQRFRQFQYREWA [A23W], for which the protein stability index is 1.61. Take FQEYDTDCEVFRQRFRQFQYRELA [A23L]: the protein stability index worked out at 2.51. Consider FQEYDTDCEVFRQRFRQFQYREVA [A23V], for which the protein stability index worked out at 2.15. To FQEYDTDCEVFRQRFRQFQYREPA [A23P] belongs 2.39; to FQEYDTDCEVFRQRFRQFQYREFA [A23F], 2.15.

For FQEYDTDCEVFRQRFRQFQYREQA [A23Q], the protein stability index worked out at 2.89. FQEYDTDCEVFRQRFRQFQYRERA [A23R]: the protein stability index was determined as 2.97.

Take FQEYDTDCEVFRQRFRQFQYREMA [A23M]: the protein stability index amounted to 2.43. In the case of FQEYDTDCEVFRQRFRQFQYRESA [A23S], the protein stability index worked out at 2.11. The result for FQEYDTDCEVFRQRFRQFQYRENA [A23N] reads 2.7.

Take FQEYDTDCEVFRQRFRQFQYREKA [A23K]: the protein stability index came out at 3.31. The result for FQEYDTDCEVFRQRFRQFQYREAE [A24E] reads 2.95; that for FQEYDTDCEVFRQRFRQFQYREAF [A24F], 2.13; that for FQEYDTDCEVFRQRFRQFQYREAC [A24C], 2.96. For FQEYDTDCEVFRQRFRQFQYREAD [A24D], the protein stability index worked out at 2.8. Take FQEYDTDCEVFRQRFRQFQYREAG [A24G]: the protein stability index came to 2.51. Regarding FQEYDTDCEVFRQRFTQFQYREAA [R16T], the protein stability index came out at 2.28. Turning to FQEYDTDCEVFRQRFWQFQYREAA [R16W], the protein stability index amounted to 2.2. As to FQEYDTDCEVFRQRFEQFQYREAA [R16E], the protein stability index turned out to be 2.27. For the variant FQEYDTDCEVFRQRFPQFQYREAA [R16P], the protein stability index stood at 2.11. Turning to FQEYDTDCEVFRQRFLQFQYREAA [R16L], the protein stability index was 2.59. The result for FQEYDTDCEVFRQRFNQFQYREAA [R16N] reads 2.46; that for FQEYDTDCEVFRQRFFQFQYREAA [R16F], 2.44; that for FQEYDTDCEVFRQRFDQFQYREAA [R16D], 2.6. The result for FQEYDTDCEVFRQRFAQFQYREAA [R16A] reads 2.51; that for FQEYDTDCEVFRQRFQQFQYREAA [R16Q], 2.78; that for FQEYDTDCEVFRQRFGQFQYREAA [R16G], 2.44. With FQEYDTDCEVFRQRFVQFQYREAA [R16V], the protein stability index came out at 2.44.

For FQEYDTDCEVFRQRFKQFQYREAA [R16K], the protein stability index came out at 2.98. Regarding FQEYDTDCEVFRQRFSQFQYREAA [R16S], the protein stability index was determined as 2.21. Regarding FQEYDTDCEVFRQRFHQFQYREAA [R16H], the protein stability index turned out to be 1.98. For the variant FQEYDTDCEVFRQRFIQFQYREAA [R16I], the protein stability index is 2.31. In the case of FQEYDTDCEVFRQRFCQFQYREAA [R16C], the protein stability index was 2.07. In the case of FQEYDTDCEVFRQRFYQFQYREAA [R16Y], the protein stability index was 2.4. FQEYDTDCEVFRQRFMQFQYREAA [R16M]: the protein stability index is 3.38. With FQEYDTDCEVFRQRFRQFQYYEAA [R21Y], the protein stability index was determined as 2.54. As for FQEYDTDCEVFRQRFRQFQYLEAA [R21L], the protein stability index turned out to be 1.91. On to FQEYDTDCEVFRQRFRQFQYTEAA [R21T], for which the protein stability index stood at 2.86. Take FQEYDTDCEVFRQRFRQFQYIEAA [R21I]: the protein stability index amounted to 2.71.

Take FQEYDTDCEVFRQRFRQFQYGEAA [R21G]: the protein stability index was found to be 3.14. The result for FQEYDTDCEVFRQRFRQFQYQEAA [R21Q] reads 2.96; that for FQEYDTDCEVFRQRFRQFQYVEAA [R21V], 2.51; that for FQEYDTDCEVFRQRFRQFQYHEAA [R21H], 2.53. On to FQEYDTDCEVFRQRFRQFQYWEAA [R21W], for which the protein stability index worked out at 1.75. With FQEYDTDCEVFRQRFRQFQYMEAA [R21M], the protein stability index was found to be 2.69. Turning to FQEYDTDCEVFRQRFRQFQYEEAA [R21E], the protein stability index came to 3.16.

As to FQEYDTDCEVFRQRFRQFQYKEAA [R21K], the protein stability index is 2.65. The result for FQEYDTDCEVFRQRFRQFQYCEAA [R21C] reads 2.92.

Consider FQEYDTDCEVFRQRFRQFQYFEAA [R21F], for which the protein stability index is 2.91.

On to FQEYDTDCEVFRQRFRQFQYSEAA [R21S], for which the protein stability index came out at 2.77.
